US20210364527A1 (QUANTUM SI, published 2021)
Read-outs that look alike come from different tables or passages of the source.

Assays:
Test in all cases: BLI heatmap
[1] = molecular target: T1, VA peptide VAKLDEESILKQK (XAKLDEESILKQK, X = V)
T1 construct: Immobilized on the biolayer interferometry sensor
T1 peptide: VAKLDEESILKQK

[2] = molecular target: T2, IA peptide IAKLDEESILKQK (XAKLDEESILKQK, X = I)
T2 construct: Immobilized on the biolayer interferometry sensor
T2 peptide: IAKLDEESILKQK

[3] = molecular target: T3, F peptide FAKLDEESILKQK (XAKLDEESILKQK, X = F)
T3 construct: Immobilized on the biolayer interferometry sensor
T3 peptide: FAKLDEESILKQK

[4] = molecular target: T4, LA peptide LAKLDEESILKQK (XAKLDEESILKQK, X = L)
T4 construct: Immobilized on the biolayer interferometry sensor
T4 peptide: LAKLDEESILKQK

[5] = molecular target: T4, LA peptide LAKLDEESILKQK …
[6] = molecular target: T1, VA peptide VAKLDEESILKQK …
[7] = molecular target: T5, W peptide WAKLDEESILKQK (XAKLDEESILKQK, X = W)
T5 construct: Immobilized on the biolayer interferometry sensor
T5 peptide: WAKLDEESILKQK

[8] = molecular target: T2, IA peptide IAKLDEESILKQK …
[9] = molecular target: T3, F peptide FAKLDEESILKQK (XAKLDEESILKQK, …)

B1: PS569 (other)
chain: MYSKNQIKIYCSEDDKGQTATPLLEKKPKFAPLYHVILWDDNTHTYEYVIKLLMSLFRMTFEKAYQHTLEVDKKGRTICITTHLEKAELKQEQISNFGPDILMQNSKGPMSATIEPAN
B1: no binding [1]; no binding [2]; no binding [3].

B2: PS573 (other)
chain: MSQTPVIEETTVKDPVKTGGPWKVVLWDDDEHTYDYVIEMLMEVCVMTMEQAFHHAVEVDTQKKTVVYSGEFEHAEHIQELILEYGPDPRMAVSKGSMSATLEKS
B2: binds [4]; binds [1]; binds [2]. B2: no binding [3].

B3: PS572 (other)
chain: MSSEELSLQTRPKRQPPFGVILHNDDLNSFDYVIDSIRKVFHYELEKCFQLTLEAHETGRSLLWTGTLEGAELKQELLLSCGPDPIMLDKGGLPLKVTLEELPQ
B3: no binding [4]; no binding [1]; no binding [2]. B3: binds [3].

B4: PS568 (other)
chain: MTTPSLPTRETEVEERTEVEPERLYHLVLLDDDQHSYQYVIEMLASIFGYGSEKAWTLARIVDTEGRAILETASHAQCERHQSQIHAYGADSRIPTSVGSMSAVIEEAGTPPQT
B4: binds [4]; binds [1]; binds [2].

B5: PS571 (other)
chain: MTSSGASQPSILEETERKPRLSDGPWKVVLWDDDFHTYEYVIEMLMDVCQMPWEKAFQHAVEVDTRKKTIVFFGELEHAEFVHERILNYGPDPRMGTSKGSMTATLEK
B5: binds [4]; binds [1]; binds [2]. B5: no binding [3].

B6: PS547 (other)
chain: MGFPTDFRQSIEISTPLGSQQPRFSNASSEPALADPVLVINPRIQPRYHVILLNDDDHTYRYVIEMMLIVFGHPPEKGFLIAKEVDKAGRAICLTTSLEHAEFKQEQVHAYGADPYFGPKCKGSMTAVLEPAE
B6: no binding [1]; no binding [3].

B7: PS398 (other)
chain: MPLKAQNRSIVGRRDEWPPPTTQSSSETKSESKRVSDTGADTKRKTKTVPKVEKPRLYKVILVNDDYTPREFVLVVLKAVFRMSEDQGYKVMITAHQKGSCVVAVYTRDIAETKAKEAVDLAKEIGFPLMFRTEPEE
B7: no binding [5]; no binding [6]; binds [7]. B7: no binding [8]; binds [9].

B8: PS552 (other)
chain: MSKTSTLPEVESESAQKLKYQPPYHVILLNDDDHSYVYVITMLKELFGHPEQKGYQLADAVDKQGRAIVFTTTREHAELKQEQIHAYGPDPTIPRCKGAMTAVIEPAE
B8: binds [4]; binds [1]; binds [2]. B8: no binding [3].

B9: PS576 (other)
chain: MASTQTPDLNEITEESTKSTGGPWRVVLWDDNEHTYEYVIEMLVEICMMTVEKAFLHAVQVDKEKRTVDFSGELEHAEHVQERILNYGADPRMSNSKGSMSATLER
B9: no binding [4]; no binding [1]; no binding [2]. B9: no binding [3].

B10: PS374 (other)
chain: MRWEDPLAAEPVTPGVAPVVEEETDAAVETPWRVILYDDDIHTFEEVILQLMKATGCTPEQGERHAWTVHTRGKDCVYQGDFFDCFRVQGVLREIQLVTEIEG
B10: no binding [6]; binds [7]; no binding [8]. B10: binds [9].

B11: PS423 (other)
chain: MAPTPAGAAVLDKQQQRRHKHASRYRVLLHNDPVNTMEYVVESLRQVVPQLSEQDAIAVMVEAHNTGVGLVIVCDIEPAEFYCEQLKTKGLTSSIEPED
B11: no binding [5]; no binding [6]; binds [7]. B11: no binding [8]; binds [9].

B12: PS577 (other)
chain: MSASSSQPGTTTKPDLDIQPRLLPPFHVILENDEFHSMEFVIDTLRKVLGVSIERAYQLMMTAHESGQAIIWTGPKEVAELKYEQVIGFHEKRSDGRDLGPLGCRIEPAV
B12: no binding [4]; no binding [1]; no binding [2]. B12: binds [3].

B13: PS424 (other)
chain: MSVETIEKRSTTRKLAPQYRVLLHNDDYNSMEYVVQVLMTSVPSITQPQAVNIMMEAHNSGLALVITCAQEHAEFYCETLKGHGLSSTIEPD
B13: no binding [5]; no binding [6]; binds [7]. B13: no binding [8]; binds [9].

B14: PS397 (other)
chain: MSDNEVAPKRKTRVKPKLERPRLYKVILVNDDYTPRDFVVMVLKAIFRMSEEAGYRVMMTAHKLGTSVVVVCARDIAETKAKEATDLGKEAGFPLMFTTEPEE
B14: no binding [5]; no binding [6]; binds [7]. B14: no binding [8]; binds [9].

B15: PS404 (other)
chain: MPVSVTAPQTKTKTKPKVERPKLYKVILVNDDFTPREFVVRVLKAEFRMSEDQAAKVMMTAHQRGVCVVAVFTRDVAETKATRATDAGRAKGYPLLFTTEPEE
B15: no binding [5]; no binding [6]; binds [7]. B15: no binding [8]; binds [9].

B16: PS389 (other)
chain: MLNSAAFKAASASPVIAPERSGQVTQKPYPTYKVIVLNDDFNTFQHVHDCLVKYIPGMTSDRAWQLTHQVHNDGQAIVWVGPQEQAELYHQQLSRAGLTMAPIEAA
B16: binds [5]; no binding [6]; no binding [7]. B16: no binding [8].

B17: PS390 (other)
chain: MLSIAAVTEAPSKGVQTADPKTVRKPYPNYKVIVLNDDFNTFQHVSSCLLKYIPGMSEARAWELTNQVHFEGLAVVWVGPQEQAELYYAQLKNAGLTMAPPEPA
B17: binds [5]; no binding [6]; no binding [7]. B17: no binding [8]; binds [9].

B18: PS553 (other)
chain: MPASASAVTEPPVSLPEAAAPRPKDRPKRQPRYHVILWNDDDHTYQYVVAMLRQLFGHPPEKGFTLAKQVDKDGRVVVLTTTKEHAELKRDQIHAFGADRLLARSKGSMSASIEPEASTG
B18: binds [4]; binds [1]; binds [2]. B18: no binding [3].

B19: PS563 (other)
chain: MSSRSATAYPEVEDDTSDQLQPLYHVILLNDEDHTYDYVIEMLQKIFGFPESKAFSHAVEVDTKGTTILLTCDLEQAERKRDLIHSYGPDWRLPRSLGSMAAVVEPAAG
B19: binds [4]; binds [1]; binds [2]. B19: no binding [3].

B20: PS388 (other)
chain: MVTTLSADVYGMATAPTVAPERSNQVVRKTYPNYKVIVLNDDFNTFQHVAECLMKYIPGMSSDRAWDLTNQVHYEGQAIVWVGPQEPAELYHQQLRRAGLTMAPLEAA
B20: binds [5]; no binding [6]; no binding [7]. B20: no binding [8].

B21: PS555 (other)
chain: MADSAQTGVAEPIQETLRRRKLRDDRRPKRQPPYHVILWNDNDHTYAYVVVMLMQLFGYPAEKGYQLASEVDTQGRAVVLTTTKEHAELKRDQIHAYGKDGLIEKCKGSMWATIEPAPGE
B21: binds [4]; no binding [1]; binds [2].

B22: PS559 (other)
chain: MNQAAISPNPDIKPNPSTHKKRASQRQPRYHVILWNDNDHTYHYVVTMLQKLFGHPPRTGIKMATEVDKKGKVIVLTTSREHAELKRDQIHAFGADKLIRRSKGAMAASIEPES
B22: binds [4]; binds [1]; binds [2].

B23: PS554 (other)
chain: MSDSASATVEVQADPPADATARSQPTPARSTGSKPKRQPRYHVVLWNDDDHTYEYVIAMLRRLFGIEPEKGFRIAEEVDQSGRAVVLTTTREHAELKRDQIHAFGADRLLARSKGSMSASIEPEA
B23: binds [4]; binds [1]; binds [2]. B23: no binding [3].
